Experimental findings from patent publication US20240402194A1 (QATAR FOUNDATION FOR EDUCATION SCIENCE AND COMMUNITY …, published 2024) are described below.

The target in assay [1] is α-synuclein aggregates from mouse (mouse, UniProt O55042 1-140). Description: filter retardation assay.
Assay [2] deals with mouse α-synuclein (WT-α-syn from mouse) (mouse, UniProt O55042 1-140). Description: method not named in the sentence (Western blot in the same paragraph).
A further assay addresses β-synuclein (UniProt Q16143 1-134). Kind of assay: Western blot. In general terms: Immunoblotting shows a protein as a band on a membrane.
The next assay deals with γ-synuclein (UniProt O76070 1-127). Description: Western blot.
Sequence of γ-synuclein (O76070 whole entry): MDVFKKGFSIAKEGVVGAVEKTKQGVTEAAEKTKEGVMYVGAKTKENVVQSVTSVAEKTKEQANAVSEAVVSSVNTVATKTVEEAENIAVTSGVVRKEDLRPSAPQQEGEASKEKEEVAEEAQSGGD

Sequence of β-synuclein (Q16143 whole entry): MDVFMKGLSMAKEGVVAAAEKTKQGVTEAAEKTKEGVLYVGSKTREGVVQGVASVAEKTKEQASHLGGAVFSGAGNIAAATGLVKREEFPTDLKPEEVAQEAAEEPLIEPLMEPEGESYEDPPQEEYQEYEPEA

B1: monoclonal antibody 2A1 (antibody, mouse IgG1, kappa, V domains shown)
VH: QVQLQQPGAELVKPGASVKMSCKASGYTFSSYNLHWVKQTPGQGLEWIGAIYPGNGDTSYNQKFKGKATLTADKSSSTAYMQLSSLTSEDSAVYYCTRRDYYGSRGFAYWGQGTLVTVSA
VL: DIQMNQSPSSLSASLGDTITITCHASQNINVWLSWYQQKPGNIPKLLIYKASNLHTGVPSRFSGSRSGTGFTLTISSLQPEDIATYYCQQGQSFPWTFGGGTKLEIKR
notes: also called mAb 2A1
For the molecule B1, the binding result in assay [1] and in assay [2] was “binds” throughout.

B2: monoclonal antibody 4B1 produced by the hybridoma 4B1, ATCC Patent Deposit Number PTA-127017 (antibody, mouse IgG1, kappa, V domains shown)
VH: EVKLVESGGGLVQPGGSLKLSCAASGITFSSYTMSWVRQTPEKRLEWVGYISNGGGRTYYPDTVKGRFTISRDNAKNTLYLQMSSLKSEDTAMYYCARQITTAMGYYYAMDYWGQGTSVTVSS
VL: DVVMTQTPLSLPVSLGDQASISCRSSQSLVHSNGNTYLHWYLQKPGQSPKLLISKVSNRFSGVPDRFSGSGSGTDFTLKISRVEAEDLGVYFCSQSTHVPLTFGAGTKLELKR
notes: also called mAb 4B1
B2: the binding result with β-synuclein and with γ-synuclein was “no binding” throughout.
